Columns and labels:
Nectin-1 = biological target: T1, Nectin-1 (UniProt Q15223 31-334, limits assumed); assay: ELISA, coated antigen, antibody at 10 ng/ml
T1 construct: Bought recombinant protein; also called CD111; PVRL-1
T1 sequence (looked up): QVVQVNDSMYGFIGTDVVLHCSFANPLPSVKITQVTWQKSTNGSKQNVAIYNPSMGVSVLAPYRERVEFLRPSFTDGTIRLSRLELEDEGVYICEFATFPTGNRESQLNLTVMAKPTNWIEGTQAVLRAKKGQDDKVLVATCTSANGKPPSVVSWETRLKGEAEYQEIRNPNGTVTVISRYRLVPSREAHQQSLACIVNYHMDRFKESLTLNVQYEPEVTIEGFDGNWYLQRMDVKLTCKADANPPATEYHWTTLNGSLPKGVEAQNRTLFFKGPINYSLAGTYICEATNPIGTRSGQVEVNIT
Procedure: (§1) Coating: Nectin-1, Nectin-2, Nectin-3, Nectin-4, Nectin-like-1, Nectin-like-2, Nectin-like-3, Nectin-like-4, and Nectin-like-5 were diluted to 5 μg/ml in coating buffer (carbonate buffer, pH 9.6) respectively. A 96-well plate was coat with 100 μl per well and incubated overnight at 2-8° C.;
(§2) Sample loading: The plate was taken out, patted dry, and washed twice with 200 μl/well of PBST, then patted dry. The Nectin-4 antibodies prepared in Example 1 (antibody MM11, antibody R012, and antibody R036) were diluted with 1% BSA/PBST to concentrations of 10 μg/ml, 1 μg/ml, 100 ng/ml, and 10 ng/ml, respectively. 1% BSA/PBST solution for dilution was set as a blank control. 100 μl per well was added to the 96-well plate, and incubated at room temperature for 2 hours;
(§3) Reaction termination and plate reading: 100 μl/well of 1 mol/L H3PO4 was added to terminate the reaction and the plated was read. The absorbances of wells in the plate at 450 nm with 650 nm as reference wavelength were read and recorded as OD_{450 nm-650 nm}.

Nectin-like-4 = biological target: T2, Nectin-like-4 (UniProt Q8NFZ8 21-324, limits assumed); assay: ELISA, coated antigen, antibody at 10 ng/ml
T2 construct: Bought recombinant protein; also called CADM4; IgSF4C
T2 sequence (looked up): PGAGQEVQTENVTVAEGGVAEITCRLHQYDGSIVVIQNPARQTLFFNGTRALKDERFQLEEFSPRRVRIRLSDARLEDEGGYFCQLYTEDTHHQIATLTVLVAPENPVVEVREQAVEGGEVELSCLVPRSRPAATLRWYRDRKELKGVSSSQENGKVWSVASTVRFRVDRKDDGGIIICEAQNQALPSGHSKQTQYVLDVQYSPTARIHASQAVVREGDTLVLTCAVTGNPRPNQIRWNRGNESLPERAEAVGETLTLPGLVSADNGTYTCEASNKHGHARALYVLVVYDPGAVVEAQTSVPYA
Procedure: as §1, §2, §3

Nectin-like-1 = biological target: T3, Nectin-like-1 (UniProt Q8N126 25-330, limits assumed); assay: ELISA, coated antigen, antibody at 10 ng/ml
T3 construct: Bought recombinant protein; also called CADM3; IgSF4B
T3 sequence (looked up): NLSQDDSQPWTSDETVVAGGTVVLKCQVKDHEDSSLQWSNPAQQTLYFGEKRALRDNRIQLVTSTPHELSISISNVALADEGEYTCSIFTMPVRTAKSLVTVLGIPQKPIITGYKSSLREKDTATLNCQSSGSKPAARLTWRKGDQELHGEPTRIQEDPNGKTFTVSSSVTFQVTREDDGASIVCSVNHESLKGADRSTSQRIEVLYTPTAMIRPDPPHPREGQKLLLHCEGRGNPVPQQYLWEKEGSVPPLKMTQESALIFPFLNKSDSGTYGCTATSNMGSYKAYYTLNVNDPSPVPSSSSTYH
Procedure: as §1, §2, §3

Nectin-like-2 [1] = biological target: T4, Nectin-like-2 (UniProt Q9BY67 45-374, limits assumed); assay: ELISA, coated antigen, antibody at 10 ng/ml
T4 construct: Bought recombinant protein; also called CADM1; IgSF4
T4 sequence (looked up): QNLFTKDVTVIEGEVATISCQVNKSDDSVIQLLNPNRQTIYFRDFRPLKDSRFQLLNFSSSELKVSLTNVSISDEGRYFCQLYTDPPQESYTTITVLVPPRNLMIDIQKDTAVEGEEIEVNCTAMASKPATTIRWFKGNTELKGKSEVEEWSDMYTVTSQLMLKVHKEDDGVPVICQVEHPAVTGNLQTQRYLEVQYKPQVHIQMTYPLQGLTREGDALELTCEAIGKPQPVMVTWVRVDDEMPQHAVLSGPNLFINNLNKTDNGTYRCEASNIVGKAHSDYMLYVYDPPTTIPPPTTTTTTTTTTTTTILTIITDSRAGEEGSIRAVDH
Procedure: as §1, §2, §3

Nectin-like-3 = biological target: T5, Nectin-like-3 (UniProt Q8N3J6 25-367, limits assumed); assay: ELISA, coated antigen, antibody at 10 ng/ml
T5 construct: Bought recombinant protein; also called CADM2; IgSF4D
T5 sequence (looked up): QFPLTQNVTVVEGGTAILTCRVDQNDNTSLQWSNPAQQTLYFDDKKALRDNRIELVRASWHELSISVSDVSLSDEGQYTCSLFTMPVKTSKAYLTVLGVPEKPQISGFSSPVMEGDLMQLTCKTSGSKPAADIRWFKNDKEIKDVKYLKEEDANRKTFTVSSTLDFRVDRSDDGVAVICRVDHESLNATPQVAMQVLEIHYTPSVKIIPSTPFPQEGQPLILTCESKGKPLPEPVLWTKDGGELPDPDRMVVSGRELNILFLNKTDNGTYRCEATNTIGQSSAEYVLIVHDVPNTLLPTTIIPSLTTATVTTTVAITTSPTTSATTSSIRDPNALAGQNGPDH
Procedure: as §1, §2, §3

[2] = biological target: T6, recombinant human Nectin-4 protein (human, UniProt Q96NY8 32-349); assay: ELISA, coated antigen, antibody at 10000 ng/ml
T6 construct: Prepared in-house (Jiangsu Mabwell) by transient transfection of CHO cells; also called PVRL-4; PRR-4
T6 sequence: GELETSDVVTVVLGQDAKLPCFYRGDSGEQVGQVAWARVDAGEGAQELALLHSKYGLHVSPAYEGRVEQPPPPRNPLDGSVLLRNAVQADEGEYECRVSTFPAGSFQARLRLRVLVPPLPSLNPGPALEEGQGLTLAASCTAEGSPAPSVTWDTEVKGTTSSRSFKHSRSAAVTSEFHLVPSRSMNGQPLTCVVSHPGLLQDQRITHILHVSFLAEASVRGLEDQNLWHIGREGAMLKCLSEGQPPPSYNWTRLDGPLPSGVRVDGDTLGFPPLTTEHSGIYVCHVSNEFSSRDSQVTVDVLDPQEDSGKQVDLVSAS
Procedure: as §1, §2, §3

Nectin-like-2 [3] = biological target: T4, Nectin-like-2; assay: ELISA, coated antigen, antibody at 10000 ng/ml
Procedure: as §1, §2, §3

B1: Antibody MM11 (antibody, mouse IgG1, kappa, V domains shown)
VH: DVQLQESGPGLVKPSQSLSLTCSVTGYSITSNFYWNWIRQFPGNRLEWMGYISYDGSNNYNPSLKNRISISRDTSKNQFFLKLNSVTTEDTATYYCVRADYWGQGTLVTVSA
VL: DTVMTQTPLSLPVSLGDQASISCRSSQSLESSDGHAYLNWYLQKPGQSPQLLIYRVSNRFSGVLHRFSGSGSGTDFTLKISRVEAEDLGVYFCLQFTHVPFTFGSGTKLEIKR
notes: Mouse monoclonal antibody from hybridoma; also called Nectin-4 mouse monoclonal antibody MM11; mouse antibody MM11
OD detection value (Nectin-1): 0.006 OD450 nm-650 nm
OD detection value (Nectin-like-4): 0.004 OD450 nm-650 nm
OD detection value (Nectin-like-1): 0.006 OD450 nm-650 nm
OD detection value (Nectin-like-2 [1]): 0.007 OD450 nm-650 nm
OD detection value (Nectin-like-3): 0.03 OD450 nm-650 nm
OD detection value [2]: 1.97 OD450 nm-650 nm
OD detection value (Nectin-like-2 [3]): 0.005 OD450 nm-650 nm

B2: Antibody R012 (antibody, V domains shown)
VH: SKSVEESGGRLVTPGTPLTLTCTVSGFSLSTYAMSWVRQAPGKGLEYIGIISGRGTTYYASWLKGRFTISKTSTTVDLKITSPTTEDTATYFCARDAGISDVYTGYFNLWGQGTLVTVSS
VL: QPVLAQLPSASAALGASAKLTCTLSSAHRTYTIAWYQQQQGEAPRYLMMLKSDGSYTKGTGVPDRFSGSSSGADRYLIISSVQAADEADYYCGADDSGGYVFGGGTQLTVTG
notes: Rabbit monoclonal antibody from phage display; also called Nectin-4 rabbit monoclonal antibody R012; rabbit antibody R012
OD detection value (Nectin-1): 0.008 OD450 nm-650 nm
OD detection value (Nectin-like-4): 0.008 OD450 nm-650 nm
OD detection value (Nectin-like-1): 0.008 OD450 nm-650 nm
OD detection value (Nectin-like-2 [1]): 0.008 OD450 nm-650 nm
OD detection value (Nectin-like-3): 0.009 OD450 nm-650 nm
OD detection value [2]: 1.51 OD450 nm-650 nm
OD detection value (Nectin-like-2 [3]): 0.009 OD450 nm-650 nm

B3: Antibody R036 (antibody, V domains shown)
VH: SQSVEESGGRLVTPGTPLTLTCTVSGFSLSSYAMSWVRQAPGKGLEYIGIIGGRGTTYYAIWAKGRFTISKTSTTVDLKITSPTTEDTATYFCARDAGTTYVGTTYVATGYFNLWGQGTLVTVSS
VL: QPVLTQPPSASAALGASAKLTCTLSSAHKTYTIAWYQQQQGEAPRYLMILKSDGSYTRGTGVPDRFSGSSSGADRYLIISSVQADDEADYYCGADDSGGYVFGGGTQLTVTG
notes: Rabbit monoclonal antibody from phage display; also called Nectin-4 rabbit monoclonal antibody R036; rabbit antibody R036
OD detection value (Nectin-1): 0.007 OD450 nm-650 nm
OD detection value (Nectin-like-4): 0.007 OD450 nm-650 nm
OD detection value (Nectin-like-1): 0.007 OD450 nm-650 nm
OD detection value (Nectin-like-2 [1]): 0.007 OD450 nm-650 nm
OD detection value (Nectin-like-3): 0.008 OD450 nm-650 nm
OD detection value [2]: 1.63 OD450 nm-650 nm
OD detection value (Nectin-like-2 [3]): 0.008 OD450 nm-650 nm
